{"source": "patent US11492376B2", "about": "“Toxoplasma gondii GRA8-derived recombinant peptides and composition for preventing or treating cancer comprising the same” (Industry—University Cooperation Foundation Hanyang …, priority 2019, dated 2022)", "molecules": {"B1": {"name": "rGRA8: recombinant His-tagged Toxoplasma gondii dense granule antigen 8, 269 amino acids; conventional GRA8-derived peptide (protein)", "chain": "MALPLRVSATVFVVFAVFGVARAMNGPLSYHPSSYGASYPNPSNPLHGMPKPENPVRPPPPGFHPSVIPNPPYPLGTPAGMPQPEVPPLQHPPPTGSPPAAAPQPPYPVGTPGMPQPEIPPVHRPPPPGFRPEVAPVPPYPVGTPTGMPQPEIPAVHHPFPYVTTTTTAAPRVLVYKIPYGGAAPPRAPPVPPRMGPSDISTHVRGAIRRQPATATTTTTTRNVLLRTAILAAAAATLIALFRQRPLFTEGVRMFPDFQYRFTVQTTQN", "modifications": "left off: small tags and cut ends", "notes": "recombinant His-tagged Toxoplasma gondii dense granule antigen 8, 269 amino acids; conventional GRA8-derived peptide"}}, "key": {"[1]": {"test_system": "mitochondrial targeting of GRA8", "test": "Subcellular fractionation: mitochondrial localization of GRA8", "format": "cell-based", "settings": "10 μM peptide, within 6 hours of incubation; 293T cells or BMDM", "experimental": "(§1) FIGS. 2A, 2B, 2C, 2D and 2E show the design and expression of an ATRAM-conjugated multifunctional GRA8 peptide (rATRAM-G8-M/AS)-based protein [(A) Subcellular fractionation of 293T cells was performed by expression of GST-GRA8 WT or incubation of WT rGRA8 with (1 μg/ml) BMDM and treatment with several Tat-GRA8 peptides for 6 hours (10 μM). Mitochondrial and cytosolic fractions were fractionated and analyzed for expression of GST by IB. The purity of the fractions was confirmed by blotting for VDAC (mitochondrial protein) and actin (cytosolic protein). (B) A mammalian GST-GRA8 construct was transfected into 293T cells for 12 hours with V5-ATP5A1 or Flag-SIRT3, and treated with several Tat-GRA8 peptides (10 μM) for 6 hours. The 293T cells were used for GST pulldown, followed by IB with αV5 or αFlag. WCL was used for IB with αGST, αV5, αFlag or αActin. (C) The schematic design of ATRAM-GRA8-M/AS and its mutants [ATRAM-G8-M/AS (SEQ ID NO: 1), ATRAM-G8-M (SEQ ID NO: 2), ATRAM (SEQ ID NO: 3)]. (D) 6×His-rATRAM-GRA8-M/AS purified with bacteria and its mutants were analyzed by Coomassie blue staining (left) or αHis immunoblotting (IB; right). (E) BMDM was incubated with rATRAM-GRA8-M/AS and its mutant (20 μg/ml) for indicated times, and cell viability was then measured by an MMT assay. Data represents four independent experiments with similar results (A, B, D and E)]. […]"}, "[2]": {"test_system": "GRA8-ATP5A1/SIRT3 interaction", "test": "GST pulldown of GRA8-ATP5A1/SIRT3 interaction in 293T cells", "format": "cell-based", "settings": "10 μM peptide, within 6 hours of incubation", "experimental": "as §1"}, "HCT116 cells": {"test_system": "HCT116 cells", "test": "MTT assay of cell viability, HCT116 cells", "format": "cell-based, human", "experimental": "(§2) FIGS. 1A, 1B and 1C: confirms that rGRA8 treatment increases HCT116 cell death by mitochondria pathways [(A and B). Various cancer cells were incubated with WT rGRA8 (20 μg/ml) and its mutants for indicated times and then cell viability was measured by MTT analysis (upper) and αATP5A1, αSIRT3 or αActin immunoblotting (lower) was performed. […] The cells were incubated with WT rGRA8 for indicated times and subjected to IP with αLys-AC or αHis and IB with αATP5A1, αATP5C1, αSIRT3, αPGC-1, αPKCα or αActin. Data represents five independent experiments with similar results. Significant differences were determined by comparison with rVector treatment (** P<0.01; *** P<0.001)].\nFIGS. 4A, 4B, 4C, 4D and 4E show HCT116 cell death by rATRAM-GRA8-M/AS-induced mitochondrial activation [(A and B) HCT116 cells were incubated with WT rGRA8 or rATRAM-GRA8-M/AS and its mutants for indicated times, and then cell viability was measured with an MTT assay. […] The cells were stimulated with rATRAM-GRA8-M/AS for 1 day and subjected to enzymatic activity of OXPHOS V, and (C) MitoTracker fluorescence signals were assessed by flow cytometry. (D) A bar graph indicates a mitochondrial mass (MFI), and (E) the mtDNA content of BMDM was measured by quantitative real-time PCR. The mtDNA content was normalized by nuclear DNA. Significant differences were determined by comparison with control treatment (** P<0.01; *** P<0.001). Data represents five independent experiments with similar results].\n(§3) As described in Non-Patent Document 1, the cell viability for a non-treated group was measured by an MTT assay. After incubation for an indicated time, 5 mg/ml of a 3-(4,5-dimethyl thiazol-2-yl)-2,5-diphenyltetrazoliumbromide (MTT) solution was added to a medium, and the cells were further incubated for 4 hours. Subsequently, all of the medium was removed, the same volume of a dimethyl sulfoxide (DMSO) solution was added for 15 minutes to dissolve formazan. Using a UV/VIS spectrophotometer, each well of a plate was measured at 540 nm to measure relative cell viability."}, "HT-29": {"test_system": "HT-29", "test": "MTT assay of cell viability, HT-29 cells", "format": "cell-based, human", "settings": "20 μg/ml, over time", "experimental": "as §2, §3"}, "ATP5A1, SIRT3 and ATP5C1": {"test_system": "ATP5A1, SIRT3 and ATP5C1", "test": "Immunoprecipitation/immunoblotting in HCT116 cells", "format": "cell-based, human", "settings": "IP/IB", "experimental": "as §2\nFor immunoprecipitation, cells were obtained, and then lysed in an NP-40 buffer supplemented with a complete protease inhibitor cocktail (Roche). After pre-purification with A/G agarose beads at 4° C. for 1 hour, a whole cell lysate was used for immunoprecipitation with indicated antibodies. […]\nFor immunoblotting, polypeptides were subjected to electrophoresis (PAGE) with an SDS-polyacrylamide gel, and then transferred to a PVDF membrane (Bio-Rad) for separation. […] Antibody binding was visualized by chemiluminescence (ECL; Millipore) and detected by a Vilber chemiluminescence analyzer (Fusion SL 3; Vilber Lourmat)."}, "HCT116 xenografts": {"test_system": "HCT116 xenografts", "test": "HCT116 xenograft mouse model, antitumor activity", "format": "in vivo, nude mouse", "settings": "HCT116 xenograft mice"}}, "data": [{"molecule": "GRKKRRQRRR-G-ATATTTTTTR (GRKKRRQRRRGATATTTTTTR; Tat-GRA8-(213-222)) [Tat-GRA8 (aa 213-222)]", "values": [{"measurement": "blocking of mitochondrial targeting of GRA8", "setting": "[1]", "value": "can effectively block mitochondrial targeting"}]}, {"molecule": "GRKKRRQRRR (Tat) [reference compound]", "values": [{"measurement": "blocking of mitochondrial targeting of GRA8", "setting": "[1]", "value": "impossible"}]}, {"molecule": "GRKKRRQRRR-G-YRFTVQTTQN (GRKKRRQRRRGYRFTVQTTQN; Tat-GRA8-(260-269)) [Tat-GRA8 (aa 260-269)]", "values": [{"measurement": "prevention of GRA8-ATP5A1/SIRT3 interaction", "setting": "[2]", "value": "able to effectively prevent"}]}, {"molecule": "B1", "values": [{"measurement": "cell death in HCT116", "setting": "HCT116 cells; 20 μg/ml, over time, MTT", "value": "induced cell death"}, {"measurement": "IC50 (HCT116 cell death)", "setting": "HCT116 cells; HCT116 cells, MTT (FIG. 4A)", "value": 20, "unit": "µg/mL"}, {"measurement": "cell death in HT-29", "setting": "HT-29", "value": "induced cell death"}, {"measurement": "ATP5A1 deacetylation", "setting": "ATP5A1, SIRT3 and ATP5C1", "value": "increased ATP5A1 deacetylation"}, {"measurement": "binding of rGRA8 to ATP5A1, SIRT3 and ATP5C1", "setting": "ATP5A1, SIRT3 and ATP5C1", "value": "significantly increased"}, {"measurement": "IC50 (antitumor activity in xenograft)", "setting": "HCT116 xenografts", "value": 10, "unit": "mg/kg"}]}]}
